Results: US20240132883A1, “RNA-TRIGGERED PROTEIN CLEAVAGE AND APPLICATIONS BY THE CRISPR CAS7-11-CSX29 COMPLEX” (Massachusetts Institute of Technology, published 2024)
Entries after “also recorded” stand apart in the source; their conditions may differ. Like-named read-outs stand apart in the source and are kept apart here.

Key:
[1] = system: Cas7-11-Csx29 complex (mammalian codon-optimized) (Desulfonema ishimotonii); assay: cell_activity; conditions: HEK293FT, citrine-Csx30-DHFR degron reporter
Sequence of Cas7-11-Csx29 complex (mammalian codon-optimized) (Desulfonema ishimotonii) (chain, as listed by the source): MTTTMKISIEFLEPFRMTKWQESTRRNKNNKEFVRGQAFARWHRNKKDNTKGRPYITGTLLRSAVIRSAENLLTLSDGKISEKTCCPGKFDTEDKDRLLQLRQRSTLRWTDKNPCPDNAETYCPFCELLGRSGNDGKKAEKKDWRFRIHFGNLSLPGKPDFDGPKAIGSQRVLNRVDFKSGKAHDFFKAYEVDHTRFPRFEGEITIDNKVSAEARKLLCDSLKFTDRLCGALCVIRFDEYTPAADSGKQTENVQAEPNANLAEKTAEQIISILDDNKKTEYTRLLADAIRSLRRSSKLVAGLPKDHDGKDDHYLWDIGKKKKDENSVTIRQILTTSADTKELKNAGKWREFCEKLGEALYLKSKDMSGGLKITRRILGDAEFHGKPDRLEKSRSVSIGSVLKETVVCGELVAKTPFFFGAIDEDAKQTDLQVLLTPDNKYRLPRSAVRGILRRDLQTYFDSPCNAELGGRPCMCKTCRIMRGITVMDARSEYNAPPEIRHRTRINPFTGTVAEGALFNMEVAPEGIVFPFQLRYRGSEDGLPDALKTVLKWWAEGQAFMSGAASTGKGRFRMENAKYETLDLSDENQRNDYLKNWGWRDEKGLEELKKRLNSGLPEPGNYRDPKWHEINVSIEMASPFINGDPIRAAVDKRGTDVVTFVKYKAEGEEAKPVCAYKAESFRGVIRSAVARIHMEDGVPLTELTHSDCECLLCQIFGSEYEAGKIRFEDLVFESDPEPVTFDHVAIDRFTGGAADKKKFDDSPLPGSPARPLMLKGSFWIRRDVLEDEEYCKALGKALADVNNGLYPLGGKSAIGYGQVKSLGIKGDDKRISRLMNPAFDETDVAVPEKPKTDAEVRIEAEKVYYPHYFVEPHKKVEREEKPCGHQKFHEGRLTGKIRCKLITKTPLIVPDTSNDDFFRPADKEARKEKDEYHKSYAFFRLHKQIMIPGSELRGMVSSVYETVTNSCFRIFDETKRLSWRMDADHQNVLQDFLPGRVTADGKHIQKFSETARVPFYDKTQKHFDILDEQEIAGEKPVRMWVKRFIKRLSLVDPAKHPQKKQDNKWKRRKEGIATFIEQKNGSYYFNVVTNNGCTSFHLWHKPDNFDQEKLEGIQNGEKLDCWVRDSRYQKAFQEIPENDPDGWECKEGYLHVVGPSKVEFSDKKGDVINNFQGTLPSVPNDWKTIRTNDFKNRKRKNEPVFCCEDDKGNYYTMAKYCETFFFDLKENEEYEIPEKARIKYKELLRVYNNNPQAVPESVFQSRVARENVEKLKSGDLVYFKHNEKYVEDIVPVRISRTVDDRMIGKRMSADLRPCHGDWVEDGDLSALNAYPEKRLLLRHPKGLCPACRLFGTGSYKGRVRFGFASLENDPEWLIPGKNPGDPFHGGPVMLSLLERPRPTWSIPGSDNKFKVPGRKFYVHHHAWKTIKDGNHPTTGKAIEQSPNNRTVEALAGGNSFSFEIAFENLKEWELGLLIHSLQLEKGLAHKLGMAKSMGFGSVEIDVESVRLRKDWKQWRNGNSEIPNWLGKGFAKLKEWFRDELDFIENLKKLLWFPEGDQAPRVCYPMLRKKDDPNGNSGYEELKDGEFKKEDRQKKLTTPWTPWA

[2] = system: T1, D. ishimotonii Csx30, full-length
T1 sequence: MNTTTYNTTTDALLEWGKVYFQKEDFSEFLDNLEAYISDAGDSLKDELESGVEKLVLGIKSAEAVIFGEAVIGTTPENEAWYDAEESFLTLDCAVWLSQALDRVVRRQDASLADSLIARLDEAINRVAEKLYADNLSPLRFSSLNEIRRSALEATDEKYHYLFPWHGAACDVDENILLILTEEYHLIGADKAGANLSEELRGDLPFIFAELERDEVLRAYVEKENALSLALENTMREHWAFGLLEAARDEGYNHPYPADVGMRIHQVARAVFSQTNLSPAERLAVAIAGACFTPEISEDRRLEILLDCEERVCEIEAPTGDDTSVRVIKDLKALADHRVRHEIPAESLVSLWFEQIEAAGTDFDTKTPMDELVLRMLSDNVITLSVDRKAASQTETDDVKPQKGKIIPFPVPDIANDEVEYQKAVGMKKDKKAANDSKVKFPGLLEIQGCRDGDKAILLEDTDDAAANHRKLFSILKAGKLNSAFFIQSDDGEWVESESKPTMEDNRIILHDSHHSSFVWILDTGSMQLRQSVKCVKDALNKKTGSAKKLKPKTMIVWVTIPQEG

[3] = target: N-terminally FLAG-tagged citrine-Csx30-degron reporter (Desulfonema ishimotonii); assay: cell-based or functional assay
[4] = target: T2, dCas7-11-Csx29 complex (Cas7-11 D429A/D654A with Csx29) (Desulfonema ishimotonii); assay: structure; cryo-EM 2.84 A; guide-target duplex with U4/C10 flipped out; PFS C(-1) and A(-2) contacted; no PAM; 1 mM MgCl2; conditions: tags: MBP-Cas7-11-His6; His6-Twin-Strep-SUMO-Csx29
T2 sequence (chain, as listed by the source D429A D654A D429A D654A): as the sequence (chain, as listed by the source) above, with D429A, D654A counted along it
Procedure: (§1) The Cas7-11-crRNA-Csx29-tgRNA complex was reconstituted by mixing the purified Cas7-11-crRNA-Csx29 complex and the target RNA, at a molar ratio of 1:4. The complex was purified by size-exclusion chromatography on a Superose 6 Increase 10/300 column (GE Healthcare), equilibrated with buffer E (20 mM HEPES-NaOH, pH 7.0, 150 mM NaCl, 1 mM MgCl₂, and 1 mM DTT). The peak fraction containing Cas7-11-crRNA-Csx29-tgRNA was analyzed by TBE-urea gel, and concentrated to an A₂₆₀ of 3.0, using an Amicon Ultra-4 Centrifugal Filter Unit (MWCO 50 kDa). Cryo-EM grids were glow-discharged using PIB-10 Ion Bombarder (JEOL, Japan) with 10 mA current for 3 min. The sample (3 μL) was applied to freshly glow-discharged Au 300 mesh R1.2/1.3 grids (Quantifoil) in a Vitrobot Mark IV (FEI) at 4° C. under 100% humidity conditions, and the excess solution of the sample was blotted with filter paper (Agar Scientific) with a waiting time of 10 s and a blotting time of 4 s. The grids were plunge-frozen into liquid ethane cooled at liquid nitrogen temperature. […] The sample was applied onto freshly glow-discharged Au 300 mesh R0.6/1 grids (Quantifoil) in a Vitrobot Mark IV under similar conditions to those for the Cas7-11-crRNA-Csx29-tgRNA complex. […] Micrographs were recorded at a nominal magnification of ×105,000 with a pixel size of 0.83 Å in a total exposure of 48 e⁻/Å² per 48 frames with exposure time of 2.5 s. […]

[5] = target: T2, dCas7-11-Csx29 complex (Cas7-11 …); assay: structure; cryo-EM 2.49 A, target-free; 5' tag anchored by Cas7.1/Cas7.2; conditions: tags: MBP-Cas7-11-His6; His6-Twin-Strep-SUMO-Csx29
Procedure: as §1

[6] = target: T3, N-terminal fragment of Csx30 (residues 1-427) (Desulfonema ishimotonii); assay: gel filtration (Superdex 200 Increase) and SDS-PAGE after cleavage by dCas7-11-crRNA-Csx29-tgRNA
T3 construct: Made by Csx29 cleavage of Csx30 in the gel-filtration experiment; expressed as such in the growth assays; also called Csx30-1
T3 chain: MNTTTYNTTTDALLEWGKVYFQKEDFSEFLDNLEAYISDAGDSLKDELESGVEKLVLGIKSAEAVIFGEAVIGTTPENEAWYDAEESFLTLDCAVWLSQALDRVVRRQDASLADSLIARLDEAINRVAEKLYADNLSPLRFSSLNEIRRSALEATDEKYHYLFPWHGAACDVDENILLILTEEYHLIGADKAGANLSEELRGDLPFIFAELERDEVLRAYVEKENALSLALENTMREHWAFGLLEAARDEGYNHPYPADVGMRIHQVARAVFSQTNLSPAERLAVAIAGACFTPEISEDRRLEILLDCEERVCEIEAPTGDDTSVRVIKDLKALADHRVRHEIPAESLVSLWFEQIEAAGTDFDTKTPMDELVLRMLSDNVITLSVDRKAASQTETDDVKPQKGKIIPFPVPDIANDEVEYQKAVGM

[7] = target: T4, D. ishimotonii Csx30, full-length
T4 chain: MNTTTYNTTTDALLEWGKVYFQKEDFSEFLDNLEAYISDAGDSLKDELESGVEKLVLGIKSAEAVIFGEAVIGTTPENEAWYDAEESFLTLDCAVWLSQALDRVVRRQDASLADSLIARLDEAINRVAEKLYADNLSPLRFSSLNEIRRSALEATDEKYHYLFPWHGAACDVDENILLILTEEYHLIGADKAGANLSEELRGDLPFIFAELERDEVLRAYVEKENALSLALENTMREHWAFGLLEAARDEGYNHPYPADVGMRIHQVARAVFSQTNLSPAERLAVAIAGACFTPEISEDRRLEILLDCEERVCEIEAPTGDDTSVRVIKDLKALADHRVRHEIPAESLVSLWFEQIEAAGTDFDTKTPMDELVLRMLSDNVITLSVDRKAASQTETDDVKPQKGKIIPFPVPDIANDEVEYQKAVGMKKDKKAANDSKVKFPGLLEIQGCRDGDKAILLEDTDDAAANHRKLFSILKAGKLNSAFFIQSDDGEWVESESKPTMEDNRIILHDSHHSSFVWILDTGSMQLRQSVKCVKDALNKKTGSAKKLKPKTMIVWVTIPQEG

Gluc-targeting guide RNA ; Gaussia luciferase mRNA target
activity (fold citrine fluorescence) [1]: 3

Csx29 H615A/C658A (catalytically inactivated Csx29)
in vitro cleavage of Csx30 (SDS-PAGE) [2]: The H615A/C658A mutations in Csx29 abolished the Csx30 cleavage

Csx29, mammalian codon-optimized, expressed in HEK293FT cells with Cas7-11 (enzyme)
citrine fluorescence in HEK293FT cells [3]: 3 fold

B1: crRNA (38 nt, 15-nt 5' tag + 23-nt spacer) ; target RNA with non-matching PFS (tgRNA/CTR) (ssRNA ; ssRNA)
RNA 1: UUGAUGUCACGGAACCUUUGUUGUCUUCGACAUGGGUA
RNA 2: GGAUUACCCAUGUCGAAGACAACAAAGCAAGGC
binding result [4]: binds

UUGAUGUCACGGAACCUUUGUUGUCUUCGACAUGGGUA (ssRNA) [crRNA (38 nt, 15-nt 5' tag + 23-nt spacer)]
binding result [5]: binds

B2: C-terminal fragment of Csx30 (residues 428-565) (other)
chain: KKDKKAANDSKVKFPGLLEIQGCRDGDKAILLEDTDDAAANHRKLFSILKAGKLNSAFFIQSDDGEWVESESKPTMEDNRIILHDSHHSSFVWILDTGSMQLRQSVKCVKDALNKKTGSAKKLKPKTMIVWVTIPQEG
notes: Made by Csx29 cleavage of Csx30; also called Csx30-2
binding result [6]: no binding

B3: D. ishimotonii Csx29, expressed as His6-Twin-Strep-SUMO-Csx29 (protein)
chain: HHHHHHMSNPIRDIQDRLKTAKFDNKDDMMNLASSLYKYEKQLMDSSEATLCQQGLSNRPNSFSQLSQFRDSDIQSKAGGQTGKFWQNEYEACKNFQTHKERRETLEQIIRFLQNGAEEKDADDLLLKTLARAYFHRGLLYRPKGFSVPARKVEAMKKAIAYCEIILDKNEEESEALRIWLYAAMELRRCGEEYPENFAEKLFYLANDGFISELYDIRLFLEYTEREEDNNFLDMILQENQDRERLFELCLYKARACFHLNQLNDVRIYGESAIDNAPGAFADPFWDELVEFIRMLRNKKSELWKEIAIKAWDKCREKEMKVGNNIYLSWYWARQRELYDLAFMAQDGIEKKTRIADSLKSRTTLRIQELNELRKDAHRKQNRRLEDKLDRIIEQENEARDGAYLRRNPPCFTGGKREEIPFARLPQNWIAVHFYLNELESHEGGKGGHALIYDPQKAEKDQWQDKSFDYKELHRKFLEWQENYILNEEGSADFLVTLCREIEKAMPFLFKSEVIPEDRPVLWIPHGFLHRLPLHAAMKSGNNSNIEIFWERHASRYLPAWHLFDPAPYSREESSTLLKNFEEYDFQNLENGEIEVYAPSSPKKVKEAIRENPAILLLLCHGEADMTNPFRSCLKLKNKDMTIFDLLTVEDVRLSGSRILLGACESDMVPPLEFSVDEHLSVSGAFLSHKAGEIVAGLWTVDSEKVDECYSYLVEEKDFLRNLQEWQMAETENFRSENDSSLFYKIAPFRIIGFPAE
cleavage of Csx30 within the Csx30-Csx31-DiRpoE complex (gel filtration, SDS-PAGE) [7]: Like isolated Csx30, Csx30 in the Csx30-Csx31-DiRpoE complex was cleaved by the Cas7-11-Csx29 complex | in vitro cleavage of Csx30 (SDS-PAGE) [7]: Cas7-11-crRNA-Csx29 cleaves Csx30 into two fragments, Csx30-1 (-50 kDa) and Csx30-2 (-15 kDa), only in the presence of the tgRNA; also recorded: the D429A/D654A catalytic mutations in Cas7-11 ... unexpectedly, improved the Csx30 cleavage by Csx29 | in vitro cleavage of Csx30 (SDS-PAGE) with target RNAs TR, CTR, NTR [7]: Csx30 was cleaved by the Cas7-11-Csx29 complex efficiently in the presence of CTR, but not TR and NTR
